Test results reported in the domain aggregation screens of Martell et al. (2025).

Experiment: soluble fraction after stress (log2 fold change); higher = more stays soluble; pooled small domains, quantitative proteomics
Details: stress: pH 4
Method in brief: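 Small protein domains from pooled custom libraries were exposed to pH 4, then quantified with high-throughput quantitative proteomics. The fold change in how much of each domain remains soluble is read as aggregation propensity. It is given as log2, with higher values meaning more stayed soluble.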

Row | Sequence | soluble fraction (log2)
1 | HMGMLATFVTSAKVPDDVVYAITKEVFENLDEFKKLHPALEGLTRETMLEGLTAPIHPGALKYYKEAGLM | -1.32
2 | HMNSHKIIDRLNQMITEKDLSEEMPAITEAFKNNERSAEDLKKYVAENLSKKLNAEEREKFVSLILQYRN | -0.338
3 | HMALSSQQIKDMQSWYGTKADGIWGSKSTTAAGGRDAGAAYSLYSSNKGRYSSYTDYMSYGGG | -0.000306
4 | HMAPQVKIPNLVDVSQRQAEAILNSYGLKVGHLIYKPDLAKDAVLGFMFNGRSLKAGDELAKGSSIDLILG | 0.192
5 | HMPVGSIGERLKALRLKAGLTQEEVGQHVHISKQTLYKYENGIVTNIPADKIELLATIYSVTPAYIMGWA | -0.118
6 | HMVMNKQEFLKILRDTLQSQLSSRETENHVEYYRTYIEEQMREGKTEIEILDVLGDPRLIARTILET | -0.253
7 | HMSADLVYLRKRLQDAIAQLPENMRTAYTLFQIANRSIREISELTGASESLVKVRIHRAKGKLQKQLEDLK | -0.5
8 | HMPKELAPYDILARYYLTVNNSKQSIALLEQYLDKAGSAPAALKAKLLLAGILYPSGNKERAEKLVEEVIK | -0.136
9 | HMPGMLVVYVTGAVRQPGRMVTLAAGSRVSDAIDAAGGLADDADAQALNLSARLNDGDLVHVPSALD | -0.227
10 | HMLPDGEAFVKVNTSLNIRTGPWGQIVGWFHNNDKVKIIGRDGDWYKISHNGQTRYIHSRYVSSSR | -0.0297
11 | HMQDKIWVVDETQLYPKLIEAMSEGKAVIHDGVAYWAEGSGKTGVIQHLPFKETTVQNVEEAIKLAQ | -0.543
12 | HMNKIGTIVSINGPIVKTAGDVGFVMHEMVYVGKEKLVGEVIGLTTDFTIVEVYEETSGIKPGETIEGT | 0.00293
13 | HMATSNDTQITGSLALRFDGSGDTFTVNVNGDDKLEINTEGTVIYKPLTTAPTYVSGGLFFSSSGDFYVG | -0.163
14 | HMDALIWYVSRGQQKFGPFNYFGVLKALQDKSVFEFDYVWKEGTENWVRLAEHELFSQEKVRELLA | -0.679
15 | HMPVSLHEQIQQARIRAEQNVEGISLLLQVNPKYYEQIEAGDVIPDQDLLKRISSLFGWNYHEMLHREKSS | -0.487
16 | HMHTSEDLEKLLTRYFQSHESINRQQFEQLSGFTRTTASRRLKALVEAGKLKNIGLHHFPVYKPTEGNF | 0.134
17 | HMRIFDDNMIFPTEAEISAALKRLVMDLPKVGFLQGHGERAVDNVGERAYSMFTHANNFRYALINQGFVT | -0.0562
18 | HMEEIIPIRFLRHRVKRRETIFGLTQKYNITEDQLKRYNTRLYSEALERKMVLQIPVFPEVDED | -0.667
19 | HMDLLKANNLSQINVDKLTDEEILKYSQQLKQSGLTESQAEQIAIARGMPATEIAKLKQRLISLTNMQ | 0.213
20 | HMLGERIKQIRKQKKMTQTDVATGIITKSMLSMIENGKATPSLPALQAIARRLQVTVEELML | 0.0227
21 | HMQRYYDVLGLQKGVSPEELKKTYRELSKKYHPDAHHNSPLRDLAEAKFKEINEAYEKIKEFLDNNF | -0.597
22 | HMALYSEQVSEIEKALMSLPPKYQLVMLLLYAEDLKYEQIAEILDEPIGTVKTKIHRARKILKERF | -0.0112
23 | HMENSPLTHREAEVMRLMSEGKSNRAISEHLVISEKTVKNHVSSILQKMSVDDRTQAVLQAIKNGWVD | 0.142
24 | HMISKYLRIESDILSAIREGRLKPGDKLPGQSEMRRIYNVSAITVRKAFTDLINDGYLVGVRGSGTYVAKR | 0.117
25 | HMVAPNSEATTKLIIEKTKYANESPAILMGFKATATMLMAKHVVLPTSKYAYFNEGRALLEKAIK | 0.278
26 | HMTPKVTVPDVTGQTFSSAKQILESLGFTVKQQGSTDETDQVIDQNPTSGEADKGATITLTTKSS | -0.139
27 | HMINIDESIDESLSEDDAVLDLLERASASFTKAQEALLEGDLGRYQTLIEQADRLVAKALELLDEKN | -1.34
28 | HMKGLDRATNKALLLKHIIDNGSTGTRFSELRQVLPSLTRGSISSLLIELRSEGKIHSIGVTRNARWYPTE | -0.309

Row | Sequence | soluble fraction (log2)
29 | HMDGLGLGAVILAQRKRQGWTQEDLAARIGVSKGAVSKWETGQSYPDLPLVPRLAALFHITVDELLDYR | 0.263
30 | HMQVSITGYLGGEKIGLFDDAKFKALAAKQGIAIDYRKAGSPAMMDADRKGMDYLFPSSRAAVEYGNAKGV | 0.144
31 | HMDRSLYVGDAVGFDSARGLMEIEVKNKFSVVAVSLKKKPSGNFITPLLRMEKKKGEAVTVAPGSGHR | -0.141
32 | HMSADISIGYNIPKGSVTVSAGGRTLQEGIDYDINYDLGTIKITNQAILNAGLPVQVNFENNAS | -0.212
33 | HMFTKSNLEKLSNSELILKAIDSGNYSKIEFGGSEALNPDVPSYKKDLKNREELIEILSEMGM | -0.0908
34 | HMDIDNDIIENILVMGVTKAIAINLSNEFERHRIIANIEYAKEKSKNSEIKNISAFTVEAIRQDYANS | -1.12
35 | HMDTDWDVSGVTPDQYRLLFSVLGGLAGVKDVGLNPDGLRIIHTPEALPSIEKAFQANGLKLKRNVD | -0.899
36 | HMAPELSGEKLWDAQDVAMFLRVKPTTVWSYVSRDGFPAPVSQAGRAGMWSEPLVVQWYLSRPG | -0.16
37 | HMKSQSIFNVKKGDTLSHIAVHVLKKNKQKVTPEAINKMVSNIAFRNKIKNPDLIFPGQKLVLEY | -0.0458
38 | HMDPERLDQLQNPDPAVRREAIIALGRSKDLAALPELAKVYKNDPVPELRELARQAGRYIQQENRP | 0.254
39 | HMAVDPSVLTRRERQALAWIARGLSNKEVARGLNLAESTVKVHVQSILRKLNLTSRVQAAVYAIEHGIDK | -0.0198
40 | HMAVSNWQKLVSSIQTQLKILALYHGPEDGIYGPNTRSAIMLYEENIGLPVTGEPSRELLAHMLDQTD | -0.194
41 | HMSGLEDIKKKILEDAGIKKGSVKFVKVDKDYDDGIWKYEIDFVYDGKEYEYEIEVETGKILSRKTEKSD | 0.165
42 | HMTTVTVGSKVRVKAGATFSDGAKPFAEVYNTVYDVQLLSHNGKEARIGIGDQWTGWIYISDLYLANQPAP | -0.101
43 | HMDTYDSIDSILEERHLSRRKLAQAIGLPPSTFQSMMSRKSGMTLEVLMKIVSYLQVSPDAFW | 0.061
44 | HMKNKVTVPKVEGMDKEEAIQALNEVGLGYKAVMQSSDSVAEGKVISQGTAAGKKVDKNTQIIITVSGG | ≥ 0.43
45 | HMDLSYPFTTVTTDNVNMRRSASSSSVVLERIDKGDSITVLGTSGNYYKVSYNDRTGYVLKQYVDVSAATT | -0.0312
46 | HMSLNHDIWVQELKEKRSGYGISQSRLAIAAGMTRQYLSDIETGKVLPSAERKAAITEALERFNPD | -0.213
47 | HMHEIVDTVLQVKQSVEADPLIAPALKNKEIVFQLNAKGVFQFKNAVIQVASALGISKNTVYMHLRNNK | -0.14
48 | HMAPETALQILEQIQINPKVTMTDLANLTGYSRRWVAQTMKQLQELNVIKRVGSTKTGYWEIIA | -0.142
49 | HMKKYLTETEAAAYLNMPVEEIKAAITKGEIEQYVKTSSGYTISVEELDKFFGQKAYDTMTSNNS | -0.43
50 | HMSPPVIQQGQDVRLIYKGTGFAVSNEGKALNTAADGQVARARTGGGQTVSGIARPGGIIEIT | 0.103
51 | HMDDERDRLVQQAMEGLSPALREILLLAYFQRMPYNQIAESLRIPLGTVKSRLHAAVAAFAKRWQELNRS | -0.475
52 | HMFDTVTIGRKIAELRKAHNMTQFELADALGISFQAVSNWERGASMPDISKLPELAEIFGVTIDEVLGK | -1.06
53 | HMAVKLELYRVFKEVAETGNISAAAKNLYISQSAVSQSIKQLETALQARLFARSPRGVTLTGEGQMLYQYV | -0.652
54 | HMRNTETMKEIQAFVEDYFFEYHQSPSMQKVADAIGTSKSTAYYYVMEMARNGMLHYDGKTIETPHTQKS | 0.285
55 | HMDQQTKFKTALAALAASAETKDRKLTKADVKEFLEDMDLGEEQMKLVYAYLASKHIHVEGAE | -0.0463
